As usually defined, the EC50 is the concentration that produces a half-maximal response.

Experiment in all cases: flow cytometry
On the technique in general: Flow cytometry measures light scatter and fluorescence of single cells or particles in a stream.

One test addresses T1, cynomolgus monkey OX40 (cynomolgus monkey).
T1 chain: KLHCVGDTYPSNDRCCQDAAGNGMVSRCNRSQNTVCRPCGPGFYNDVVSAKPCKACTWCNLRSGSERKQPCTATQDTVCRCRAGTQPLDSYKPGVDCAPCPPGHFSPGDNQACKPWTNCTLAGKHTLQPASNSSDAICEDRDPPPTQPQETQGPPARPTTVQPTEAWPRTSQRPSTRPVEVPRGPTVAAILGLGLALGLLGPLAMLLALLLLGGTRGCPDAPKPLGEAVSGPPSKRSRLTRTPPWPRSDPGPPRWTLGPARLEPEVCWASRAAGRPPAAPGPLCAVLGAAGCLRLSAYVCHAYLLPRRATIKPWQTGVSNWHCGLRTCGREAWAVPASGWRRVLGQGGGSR

Test [1] has as its target T2, human OX40 (human, UniProt P43489 29-277).
T2 chain: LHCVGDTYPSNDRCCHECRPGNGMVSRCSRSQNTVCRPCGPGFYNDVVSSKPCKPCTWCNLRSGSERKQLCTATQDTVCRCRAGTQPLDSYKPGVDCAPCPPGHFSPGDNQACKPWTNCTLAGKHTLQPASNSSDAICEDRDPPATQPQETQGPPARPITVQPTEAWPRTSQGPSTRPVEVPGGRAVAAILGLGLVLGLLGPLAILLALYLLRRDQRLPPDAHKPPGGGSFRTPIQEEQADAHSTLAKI

Test [2] has as its target T2, human OX40.
For test [3], the target named is T2, human OX40.

Substitutions are numbered along the chain they refer to. Like-named read-outs stand apart in the source and are kept apart here.

B1: mono-mut23-20E5 (Fc fusion)
chain: IWELKKDVYVVELDWYPDAPGEMVVLTCDTPEEDGITWTLDQSSEVLGSGKTLTIQVKEFGDAGQYTCHKGGEVLSHSLLLLHKKEDGIWSTDILKDQKEPKNKTFLRCEAKNYSGRFTCWWLTTISTDLTFSVKSSRGSSDPQGVTCGAATLSAERVRGDNKEYEYSVECQEDSACPAAEESLPIEVMVDAVHKLKYENYTSSFFIRDIIKPDPPKNLQLKPLKNSRQVEVSWEYPDTWSTPHSYFSLTFSVQVQGKSKREKKDRVFTDKTSATVICRKNASISVRAQDRYYSSSWSEWASVPCSGGGGSGGGGSGGGGSGGGGSGGGGSRNLPVATPDPGMFPCLHHSQNLLRAVSNMLQKARQTLEFSPCTSEEIDHEDITKDKTSTVEACLPLELTKNESCLNSRETSFITNGSCLASRKTSFMMALCLSSIYEDLKMYQVEFKTMNAKLLMDPKRQIFLDQNMLAVIDELMQALNFNSETVPQKSSLEEPDFYKTAIKLCILLHAFRIRAVTIDRVMSYLNASGGGGSGGGGSEPKSSDKTHTCPPCPAPEFEGGPSVFLFPPKPKDTLMISRTPEVTCVVVDVSHEDPEVKFNWYVDGVEVHNAKTKPREEQYNSTYRVVSVLTVLHQDWLNGKEYKCKVSNKALPASIEKTISKAKGQPREPQVCTLPPSRDELTKNQVSLSCAVKGFYPSDIAVEWESNGQPENNYKTTPPVLDSDGSFFLVSKLTVDKSRWQQGNVFSCSVMHEALHNHYTQKSLSLSPG
heavy: QVQLVQSGAEVKKPGASVKVSCKASGYTFTSYVMHWVRQAPGQRLEWIGYINPYNDGTKYNEKFKGRATLTSDKSASTAYMELSSLRSEDTAVYYCANYYGSSLSMDYWGQGTLVTVSSASTKGPSVFPLAPSSKSTSGGTAALGCLVKDYFPEPVTVSWNSGALTSGVHTFPAVLQSSGLYSLSSVVTVPSSSLGTQTYICNVNHKPSNTKVDKKVEPKSCDKTHTCPPCPAPEFEGGPSVFLFPPKPKDTLMISRTPEVTCVVVDVSHEDPEVKFNWYVDGVEVHNAKTKPREEQYNSTYRVVSVLTVLHQDWLNGKEYKCKVSNKALPASIEKTISKAKGQPREPQVYTLPPCRDELTKNQVSLWCLVKGFYPSDIAVEWESNGQPENNYKTTPPVLDSDGSFFLYSKLTVDKSRWQQGNVFSCSVMHEALHNHYTQKSLSLSPG
light: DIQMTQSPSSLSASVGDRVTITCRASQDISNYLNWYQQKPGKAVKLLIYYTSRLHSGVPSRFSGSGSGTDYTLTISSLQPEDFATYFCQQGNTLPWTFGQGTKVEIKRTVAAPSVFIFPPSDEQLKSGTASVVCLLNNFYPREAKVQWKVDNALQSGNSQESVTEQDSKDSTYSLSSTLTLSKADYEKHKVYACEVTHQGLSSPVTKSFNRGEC
For B1, the figures for the EC50 with cynomolgus monkey OX40, with human OX40 [1] and with human OX40 [2] were 111 nM, 92.6 nM and 59.2 nM, respectively.

B2: mono-mut23-20E5_V6 (Fc fusion)
chain: B1 chain
heavy: B1 heavy with G57A
light: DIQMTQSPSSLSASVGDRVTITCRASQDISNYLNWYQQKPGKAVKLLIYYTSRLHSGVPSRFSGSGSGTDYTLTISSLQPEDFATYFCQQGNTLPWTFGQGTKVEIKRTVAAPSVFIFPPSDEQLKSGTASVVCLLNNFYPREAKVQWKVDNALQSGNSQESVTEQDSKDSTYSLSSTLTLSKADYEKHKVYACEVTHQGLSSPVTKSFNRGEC
Take B2: it took 538 nM to reach a half-maximal effect in the test with human OX40 [1] (EC50).

B3: mono-mut23-20E5_V5 (Fc fusion)
chain: B1 chain
heavy: B1 heavy with D56A
light: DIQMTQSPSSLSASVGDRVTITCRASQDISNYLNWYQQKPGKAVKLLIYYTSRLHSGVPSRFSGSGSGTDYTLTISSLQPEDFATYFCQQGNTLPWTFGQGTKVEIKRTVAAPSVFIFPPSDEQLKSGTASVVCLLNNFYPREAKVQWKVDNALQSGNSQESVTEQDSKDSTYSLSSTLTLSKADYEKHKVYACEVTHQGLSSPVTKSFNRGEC
The molecule B3 registered an EC50 in the test with human OX40 [1] of 73 nM.

B4: mono-mut23-12H3_V4 (Fc fusion)
chain: B1 chain
heavy: QVQLVQSGAEVKKPGSSVKVSCKASGYTFKDYTMHWVRQAPGQGLEWIGGIYPNAGGSTYNQNFKDRVTLTADKSTSTAYMELSSLRSEDTAVYYCARMGYHGPHLDFDVWGQGTTVTVSSASTKGPSVFPLAPSSKSTSGGTAALGCLVKDYFPEPVTVSWNSGALTSGVHTFPAVLQSSGLYSLSSVVTVPSSSLGTQTYICNVNHKPSNTKVDKKVEPKSCDKTHTCPPCPAPEFEGGPSVFLFPPKPKDTLMISRTPEVTCVVVDVSHEDPEVKFNWYVDGVEVHNAKTKPREEQYNSTYRVVSVLTVLHQDWLNGKEYKCKVSNKALPASIEKTISKAKGQPREPQVYTLPPCRDELTKNQVSLWCLVKGFYPSDIAVEWESNGQPENNYKTTPPVLDSDGSFFLYSKLTVDKSRWQQGNVFSCSVMHEALHNHYTQKSLSLSPG
light: DIQMTQSPSSLSASVGDRVTITCKASQDVGAAVAWYQQKPGKAPKLLIYWASTRHTGVPSRFSGSGSGTDFTLTISSLQPEDFATYYCQQYINYPLTFGGGTKVEIKRTVAAPSVFIFPPSDEQLKSGTASVVCLLNNFYPREAKVQWKVDNALQSGNSQESVTEQDSKDSTYSLSSTLTLSKADYEKHKVYACEVTHQGLSSPVTKSFNRGEC
In turn, B4 came in with an EC50 in the test with human OX40 [3] of 1880 nM.

B5: mono-mut23-20E5_V4 (Fc fusion)
chain: B1 chain
heavy: B1 heavy with D56E
light: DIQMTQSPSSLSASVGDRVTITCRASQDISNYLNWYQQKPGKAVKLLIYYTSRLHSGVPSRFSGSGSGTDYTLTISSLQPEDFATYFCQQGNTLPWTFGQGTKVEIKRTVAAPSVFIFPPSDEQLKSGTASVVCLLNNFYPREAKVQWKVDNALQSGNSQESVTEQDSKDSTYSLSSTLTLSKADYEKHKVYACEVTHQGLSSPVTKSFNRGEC
For the molecule B5, in the test with human OX40 [1], the EC50 worked out at 69.2 nM.

B6: mono-mut23-12H3_V8 (Fc fusion)
chain: B1 chain
heavy: B4 heavy with A55Q, M99I
light: B4 light
As to B6, the EC50 in the test with human OX40 [3] is 1910 nM.

B7: mono-mut23-12H3_V3 (Fc fusion)
chain: B1 chain
heavy: B4 heavy with A55Q
light: B4 light
On to B7, for which the EC50 with human OX40 [3] is 839 nM.

B8: mono-mut23-12H3 (Fc fusion)
chain: B1 chain
heavy: B4 heavy with A55N
light: B4 light
B8: the EC50 stood at 19.2 nM with cynomolgus monkey OX40 and 15.6 nM in the test with human OX40 [2].

The record behind these values is patent publication US20250236653A1 (published 2025).
